This passage reports Kd, binding result and MFI results from US20260209350A1 (Alector, published 2026).

For experiment [1], the target named is T1, human monomeric His tagged TREM2 protein (human, UniProt Q9NZC2 19-174).
T1 construct: also called hTREM2-HIS
T1 sequence: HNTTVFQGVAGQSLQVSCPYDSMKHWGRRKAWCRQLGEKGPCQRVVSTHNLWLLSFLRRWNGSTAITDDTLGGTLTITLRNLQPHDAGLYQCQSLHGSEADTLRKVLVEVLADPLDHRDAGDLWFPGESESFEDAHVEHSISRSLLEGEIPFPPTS
Kind of experiment: ForteBio or MSD-SET, monovalent. (In general: BLI is a label-free optical method that tracks binding on a fibre tip over time.)

Experiment [2] deals with T2, human TREM2 Fc fusion protein (human, UniProt Q9NZC2 19-174).
T2 construct: also called hTREM2-Fc; not shown: Fc part not specified
T2 sequence: T1 sequence
Kind of experiment: ForteBio or MSD-SET, avid.

The target in experiment [3] is T3, mouse TREM2 Fc fusion protein (mouse, UniProt Q99NH8 19-171).
T3 construct: also called mTREM2-Fc; not shown: Fc part not specified
T3 sequence (looked up): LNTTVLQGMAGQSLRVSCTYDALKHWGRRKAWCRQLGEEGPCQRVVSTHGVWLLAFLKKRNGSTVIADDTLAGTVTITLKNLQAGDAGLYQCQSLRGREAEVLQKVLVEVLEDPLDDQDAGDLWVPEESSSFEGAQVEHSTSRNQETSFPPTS
Kind of experiment: ForteBio or MSD-SET, avid.

A further experiment concerns the target T4, mouse TREM2 on cells (mouse, UniProt Q99NH8 19-227).
T4 construct: whole, on cells; Used for the recombinant protein on BWZ/BW cells (with mouse DAP12) and for the native protein on mouse macrophages and dendritic cells; the cell type stands under assay; also called mTREM2; mTrem2
T4 sequence (looked up): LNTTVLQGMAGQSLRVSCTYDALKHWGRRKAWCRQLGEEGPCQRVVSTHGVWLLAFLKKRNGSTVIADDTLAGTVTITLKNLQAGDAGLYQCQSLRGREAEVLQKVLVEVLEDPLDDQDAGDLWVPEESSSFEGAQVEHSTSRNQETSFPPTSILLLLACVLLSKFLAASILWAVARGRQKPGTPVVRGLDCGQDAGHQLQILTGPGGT
In words: FACS, mTrem2 cells. (In general: In flow cytometry, cells or beads pass a laser one at a time.)

Usually Kd stands for the concentration at which binding is half-saturated. Low values mean tighter binding, high ones weaker binding.

Where a chain is given by its changes, count along the chain named.

B1: Ab34 (antibody, human IgG1, V domains shown)
VH: QVQLVESGGGVVQPGRSLRLSCAASGFTFSSYGMHWVRQAPGKGLEWVAVISYDGSNKYYADSVKGRFTISRDNSKNTLYLQMNSLRAEDTAVYYCARDRGGEYVDFAFDIWGQGTMVTVSS
VL: DIQMTQSPSSLSASVGDRVTITCRASQSISSYLNWYQQKPGKAPKLLIYAASSLQSGVPSRFSGSGSGTDFTLTISSLQPEDFATYYCQQSDFPPWTFGGGTKVEIK
notes: human IgG1
Turning to B1, the results for the Kd in experiment [1] and in experiment [2] were 27 nM and 0.706 nM, respectively. In addition, the binding result in experiment [3] is reported as “no binding”.

B2: Ab54 (antibody, human IgG1, V domains shown)
VH: QVQLVQSGAEVKKPGASVKVSCKASGYTFTSYYMHWVRQAPGQGLEWMGIINPSGGSTSYAQKFQGRVTMTRDTSTSTVYMELSSLRSEDTAVYYCARGPGYTTALDYYYMDVWGKGTTVTVSS
VL: B1 VL with S30N, F93D, P94D, W96F
notes: human IgG1
As for B2, the Kd in experiment [1] worked out at 3.02 nM; in experiment [2], 0.5 nM.

B3: Ab26 (antibody, human IgG1, V domains shown)
VH: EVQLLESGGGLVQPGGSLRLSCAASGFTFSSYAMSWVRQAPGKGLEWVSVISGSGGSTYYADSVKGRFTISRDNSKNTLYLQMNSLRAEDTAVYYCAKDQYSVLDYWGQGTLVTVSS
VL: EIVLTQSPATLSLSPGERATLSCRASQSVSSYLAWYQQKPGQAPRLLIYDASNRATGIPARFSGSGSGTDFTLTISSLEPEDFAVYYCQQEFDLPFTFGGGTKVEIK
notes: human IgG1
On to B3, for which the values for the Kd in experiment [1] and in experiment [2] were 3.6 nM and 0.481 nM, respectively.

B4: Ab87 (antibody, human IgG1, V domains shown)
VH: QVQLQESGPGLVKPSETLSLTCTVSGGSISSYYWSWIRQPPGKGLEWIGSIYYSGSTNYNPSLKSRVTISVDTSKNQFSLKLSSVTAADTAVYYCARHGWDRVGWFDPWGQGTLVTVSS
VL: B3 VL with S31R, E91Y, F92I, D93F, L94W, F96P
notes: human IgG1
As to B4, the Kd amounted to 9.51 nM in experiment [2] and 4.48 nM in experiment [3]. The molecule also displayed an MFI with mouse TREM2 on cells of 1230 MFI.

B5: Ab6 (antibody, human IgG1, V domains shown)
VH: QVQLVQSGAEVKKPGASVKVSCKASGYTFTSYYMHWVRQAPGQGLEWMGIINPGGGSTSYAQKFQGRVTMTRDTSTSTVYMELSSLRSEDTAVYYCARGSPTYGYLYDPWGQGTLVTVSS
VL: B3 VL with N53K, E91R, F92V, D93N, F96P
notes: human IgG1
Take B5: the figures for the Kd in experiment [2] and in experiment [3] were 4.44 nM and 8.51 nM, respectively. In addition, in the experiment with mouse TREM2 on cells, the MFI stood at 228 MFI.

B6: Ab33 (antibody, human IgG1, V domains shown)
VH: QVQLVESGGGVVQPGRSLRLSCAASGFTFSSYGMHWVRQAPGKGLEWVAVISYDGSNKYYADSVKGRFTISRDNSKNTLYLQMNSLRAEDTAVYYCARAGGHLFDYWGQGTLVTVSS
VL: B3 VL with E91D, F92S, D93S, L94F, F96P
notes: human IgG1
Consider B6, for which the Kd was 16 nM in experiment [1] and 1.42 nM in experiment [2]. In experiment [3], the binding result is listed as “no binding”.

B7: Ab62 (antibody, human IgG1, V domains shown)
VH: EVQLVQSGAEVKKPGESLKISCKGSGYSFTSYWIGWVRQMPGKGLEWMGIIYPGDSDTRYSPSFQGQVTISADKSISTAYLQWSSLKASDTAMYYCARAGHYDDWSGLGLDVWGQGTMVTVSS
VL: B3 VL with N53K, E91S, F92S, D93V, L94H, F96Y
notes: human IgG1
For B7, the figures for the Kd in experiment [1] and in experiment [2] were 14.2 nM and 0.772 nM, respectively. In the experiment with mouse TREM2 on cells, this molecule registered an MFI of 4750 MFI.

B8: Ab86 (antibody, human IgG1, V domains shown)
VH: QVQLVESGGGVVQPGRSLRLSCAASGFTFSSYGMHWVRQAPGKGLEWVAVISYDGSNKYYADSVKGRFTISRDNSKNTLYLQMNSLRAEDTAVYYCAKDGVYYGLGNWFDPWGQGTLVTVSS
VL: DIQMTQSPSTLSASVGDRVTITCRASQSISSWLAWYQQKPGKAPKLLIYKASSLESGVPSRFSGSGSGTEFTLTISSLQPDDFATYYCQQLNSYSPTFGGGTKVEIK
notes: human IgG1
Regarding B8, the Kd in experiment [2] is 3.89 nM; in experiment [3] it was 6.55 nM. Moreover, the MFI with mouse TREM2 on cells came out at 355 MFI.

B9: Ab31 (antibody, human IgG1, V domains shown)
VH: QVQLVESGGGVVQPGRSLRLSCAASGFTFSSYGMHWVRQAPGKGLEWVALIWYDGSNKYYADSVKGRFTISRDNSKNTLYLQMNSLRAEDTAVYYCARRRDGYYDEVFDIWGQGTMVTVSS
VL: DIQLTQSPSSLSASVGDRVTITCQASQDISNFLNWYQQKPGKAPKLLIYDASNLETGVPSRFSGSGSGTDFTFTISSLQPEDIATYYCQQPVDLPFTFGGGTKVEIK
notes: human IgG1
Turning to B9, the results for the Kd in experiment [1] and in experiment [2] were 6.82 nM and 0.451 nM, respectively. Also, the binding result in experiment [3] is recorded as “no binding”.

B10: Ab3 (antibody, human IgG1, V domains shown)
VH: QVQLVQSGAEVKKPGSSVKVSCKASGGTFSSYAISWVRQAPGQGLEWMGGIIPIFGTANYAQKFQGRVTITADESTSTAYMELSSLRSEDTAVYYCAREQYHVGMDVWGKGTTVTVSS
VL: B9 VL with L4M, F32Y, E55A, V92F, D93N, L94F, F96Y
notes: human IgG1
With B10, the results for the Kd in experiment [1] and in experiment [2] were 14.2 nM and 0.49 nM, respectively. The binding result in experiment [3] is reported as “no binding”.

B11: Ab18 (antibody, human IgG1, V domains shown)
VH: QVQLQESGPGLVKPSETLSLTCTVSGGSISSYYWSWIRQPPGKGLEWIGSIYYSGSTNYNPSLKSRVTISVDTSKNQFSLKLSSVTAADTAVYYCARDGGGEYPSGTPFDIWGQGTMVTVSS
VL: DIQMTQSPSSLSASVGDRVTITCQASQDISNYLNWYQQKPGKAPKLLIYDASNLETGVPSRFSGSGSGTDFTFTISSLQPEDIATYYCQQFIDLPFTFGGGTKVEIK
notes: human IgG1
On to B11, for which the Kd was determined as 6.77 nM in experiment [1] and 0.513 nM in experiment [2]. In the experiment with mouse TREM2 on cells, this molecule returned an MFI of 5160 MFI.

B12: Ab19 (antibody, human IgG1, V domains shown)
VH: B11 VH
VL: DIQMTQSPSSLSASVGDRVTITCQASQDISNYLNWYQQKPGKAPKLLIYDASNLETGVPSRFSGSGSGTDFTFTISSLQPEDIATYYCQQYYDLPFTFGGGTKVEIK
notes: human IgG1
Consider B12, for which the Kd worked out at 4.49 nM in experiment [1] and 0.465 nM in experiment [2]. Besides, in the experiment with mouse TREM2 on cells, the MFI came to 2300 MFI.

B13: Ab51 (antibody, human IgG1, V domains shown)
VH: QVQLVQSGAEVKKPGASVKVSCKASGYTFTSYYMHWVRQAPGQGLEWMGIINPSGGSTSYAQKFQGRVTMTRDTSTSTVYMELSSLRSEDTAVYYCARGVGGQDYYYMDVWGKGTTVTVSS
VL: DIQMTQSPSSLSASVGDRVTITCRASQSISSYLNWYQQKPGKAPKLLIYAASSLQSGVPSRFSGSGSGTDFTLTISSLQPEDFATYYCQQFDDVFTFGGGTKVEIK
notes: human IgG1
For B13, the Kd in experiment [1] is 1.64 nM; in experiment [2], 0.284 nM.

B14: Ab64 (antibody, human IgG1, V domains shown)
VH: EVQLVQSGAEVKKPGESLKISCKGSGYSFTSYWIGWVRQMPGKGLEWMGIIYPGDSDTRYSPSFQGQVTISADKSISTAYLQWSSLKASDTAMYYCARLGRWSSGSTAFDIWGQGTMVTVSS
VL: EIVMTQSPATLSVSPGERATLSCRASQSVSSNLAWYQQKPGQAPRLLIYGASTRATGIPARFSGSGSGTEFTLTISSLQSEDFAVYYCQQDDDGYTFGGGTKVEIK
notes: human IgG1
Consider B14, for which the Kd in experiment [1] was found to be 65.7 nM; in experiment [2], 0.945 nM. This molecule also returned an MFI with mouse TREM2 on cells of 8680 MFI.

B15: Ab10 (antibody, human IgG1, V domains shown)
VH: B14 VH with Y32N, L99E, G100A, R101G, W102Y, S103D, S104Y, S106E, T107L
VL: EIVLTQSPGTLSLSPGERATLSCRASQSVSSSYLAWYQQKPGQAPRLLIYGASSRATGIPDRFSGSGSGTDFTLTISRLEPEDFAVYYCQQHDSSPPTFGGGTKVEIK
notes: human IgG1
For the molecule B15, the Kd was found to be 4.79 nM in experiment [1] and 0.544 nM in experiment [2]. Besides, the MFI in the experiment with mouse TREM2 on cells is 11500 MFI.

B16: Ab4 (antibody, human IgG1, V domains shown)
VH: QVQLVQSGAEVKKPGSSVKVSCKASGGTFSSYAISWVRQAPGQGLEWMGGIIPIFGTASYAQKFQGRVTITADESTSTAYMELSSLRSEDTAVYYCARGVDSIMDYWGQGTLVTVSS
VL: EIVMTQSPATLSVSPGERATLSCRASQSVSSNLAWYQQKPGQAPRLLIYSASTRATGIPARFSGSGSGTEFTLTISSLQSEDFAVYYCQQDHDYPFTFGGGTKVEIK
notes: human IgG1
In turn, B16 yielded a Kd in experiment [2] of 0.971 nM. The binding result in experiment [3] is reported as “no binding”. In the experiment with mouse TREM2 on cells, the MFI was determined as 295 MFI.

B17: Ab20 (antibody, human IgG1, V domains shown)
VH: QVQLQESGPGLVKPSETLSLTCTVSGGSISSYYWSWIRQPPGKGLEWIGSIYYSGSTNYNPSLKSRVTISVDTSKNQFSLKLSSVTAADTAVYYCARSGMASFFDYWGQGTLVTVSS
VL: EIVLTQSPGTLSLSPGERATLSCRASQSVSSDYLAWYQQKPGQAPRLLIYGASSRATGIPDRFSGSGSGTDFTLTISRLEPEDFAVYYCQQFSSHPFTFGGGTKVEIK
notes: human IgG1
With B17, the values for the Kd in experiment [1] and in experiment [2] were 3.62 nM and 0.658 nM, respectively. The molecule also registered an MFI in the experiment with mouse TREM2 on cells of 11200 MFI.

B18: Ab72 (antibody, human IgG1, V domains shown)
VH: B17 VH with M100T, A101E, S102T, F103L
VL: B9 VL with L4M, S30T, F32Y, G66R, P91D, D93N, L94Y, F96P
notes: human IgG1
As for B18, the Kd in experiment [1] amounted to 29.4 nM; in experiment [2], 0.839 nM. This molecule also yielded an MFI with mouse TREM2 on cells of 3750 MFI.
